Laboratory results as given in patent US20240067729A1 (published 2024).
Changes are numbered by the printed parent chain.

B1: 752-hIgG1 (chimeric PAL752) (antibody, V domains shown)
VH: EVQLQESGAELARPGASVKLSCKASGHAFTSDSINWVKQRIGQGLEWIGEIYPRSGNPYYNEKFKGKATLTADKSSSTAYMELRSLTSEDSAVYFCATDYYGRYFDVWGTGTTVTVSS
VL: DIQMTQSSFSFSVSLGDRVTIICKASEDIYNRLAWYQQKPGNTPRLLISGATSLETGVPSRFSGSGSGKDYTLSITSLQTEDVATYYCQQYWSTPWTFGGGTKLEIK
B2: PAL771.2 (antibody, V domains shown)
VH: EVQLQESGAELVKPGASVKLSCTASGFNIKDTYMHWVKQRPEQGLEWIGRIDPANGNTKYDPKFPGKATITADTSSNTAYLQLSSLTSEDAAVYYCARPFNYRFYDVYYFDYWGQGTTLTVST
VL: QIVLTQSPAIMSASPGEKVTMTCSASSSVSYMYWYQQKPGSSPRLLIYDTSNLASGVPLRFSGSGSGTSYSLTLSRMEAEDAATYYCQQWSTYPLTFGAGTKLELK
B3: h769-tm2 (humanized 769-hIgG1 variant) (antibody, V domains shown)
VH: EVQLVQSGAEVKKPGATVKISCKVSGFNIKDTYMHWVQQAPGKGLEWMGLIDPANDNTIYAEKFQGRVTITADTSTDTAYMELSSLRSEDTAVYYCAREGYGGSYGEGYWGQGTLVTVSS
VL: EIVMTQSPPTLSLSPGERVTLSCRASQSVSNDLSWYQQKPGQAPRLLIYYASIRFTGIPARFSGSGYGTDFTLTISSLQPEDFAVYYCQQDYNSPWTFGQGTKVEIK
B4: h769-IF3 (humanized 769-hIgG1 variant) (antibody, V domains shown)
VH: B3 VH
VL: B3 VL with Y67S
B5: 769-hIgG1 (chimeric PAL769) (antibody, V domains shown)
VH: EVQLQESGAELVKPGASVTLSCTASGFNIKDTYMHWVKQRPEQGLEWIGRIDPANDNTKYDPKFQDKATITADTSSDTAYLRLSSLTSEDTAVYYCAREGYGGSYGEGYWGQGTTLTVSS
VL: SIVMTQTPKFLLVSAGDRVTITCKASQSVSNDVIWYQQKPGQSPKLLIYYASIRFTGVPDRFAGSGYGTDFTFTINTVQAEDLAVYFCQQDYNSPWTFGGGTKLEIK
B6: 788-hIgG1 (chimeric PAL788) (antibody, V domains shown)
VH: QVQLQQPGAELVKPGASVKLSCKASGYTFTSNWMNWVKQRPGRGLEWIGRIHPSDSETHYHQKFKSKATLTVDKSSSTAYIQLSSLTSEDSAVYYCAHSSGDYGRDYWGQGTTLTVSS
VL: NIVLTQSPASLAVSLGQRATISCRASESVDSYGNSFMHWYQQKPGQPPKLLIYLASNLQSGVPARFSGSGSRTDFTLTIDPVEADDAATYYCQQNNEDPWTFGGGTKLEIK
B7: 785-hIgG1 (chimeric PAL785) (antibody, V domains shown)
VH: EVQLQESGPELVKPGTSVKMSCKASGYTFTSYVMHWVKQRPGQGLEWIGYINPYNDGSKYNEKFKGKATLTSDTSSSTAYMELSSLTSEDSAVYYCAKQTLDFWGQGTSVTVST
VL: DIVLTQSPASLAVSLGQRATISCRASESVEFYGTTLMQWYQQKPGQPPKLLIYAASNVESGVPARFSGSGSGTDFSLNIHPVEEGDIGMYFCQQSRKVPYTFGGGTKLEIK
B8: h769-tm3 (humanized 769-hIgG1 variant) (antibody, V domains shown)
VH: B3 VH
VL: B3 VL with Y67S, Y87F
B9: 767-hIgG1 (chimeric PAL767) (antibody, V domains shown)
VH: EVQLQESGPSLVKPSQTLSLTCSVTGDSITSGYWNWIRKFPGNKLEYMGYISYTGSTYYNPSLKRRISITRDTSKNQYYLQLNSVTTEDTATYYCASQGGWLQAMDYWGQGTSVTVSS
VL: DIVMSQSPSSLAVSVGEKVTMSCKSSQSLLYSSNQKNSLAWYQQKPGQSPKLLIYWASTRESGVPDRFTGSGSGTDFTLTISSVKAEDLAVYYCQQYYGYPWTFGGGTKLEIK

Assays:
[1] = target: T1, human PD-L1 (hPD-L1) coated on ELISA wells, Example 7 (human, UniProt Q9NZQ7 19-238); assay: Blocking ELISA
T1 sequence (Q9NZQ7 19-238): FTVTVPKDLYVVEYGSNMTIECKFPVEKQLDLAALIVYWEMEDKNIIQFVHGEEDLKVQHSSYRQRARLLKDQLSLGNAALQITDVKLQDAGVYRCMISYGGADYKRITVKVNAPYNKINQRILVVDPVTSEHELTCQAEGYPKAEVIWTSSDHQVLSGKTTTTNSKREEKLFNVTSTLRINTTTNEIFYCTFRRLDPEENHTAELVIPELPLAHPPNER

[2] = target: T1, human PD-L1 (hPD-L1) coated on ELISA …; assay: huPD1-Fc blocking ELISA
[3] = target: T1, human PD-L1 (hPD-L1) coated on ELISA …; assay: blocking ELISA (hPD1-Fc binding)

| Binder | IC50 [1] | IC50 [2] | IC50 [3] |
| --- | --- | --- | --- |
| B1 | 4.64 nM |  |  |
| B2 |  | 0.6 nM |  |
| B3 |  |  | 1.44 nM |
| B4 |  |  | 1.47 nM |
| B5 | 1.58 nM |  | 1.57 nM |
| B6 | 2.93 nM |  |  |
| B7 | 1.94 nM |  |  |
| B8 |  |  | 1.29 nM |
| B9 | 2.01 nM |  |  |
